In publication PMC3056349 (Neuron, 2011):

Target: PTPσ-CFP (protein tyrosine phosphatase receptor PTPσ expressed in COS cells) (UniProt Q13332 30-1948)
Assay: cell-surface binding assay

Sequence of PTPσ-CFP (protein tyrosine phosphatase receptor PTPσ expressed in COS cells) (Q13332 30-1948): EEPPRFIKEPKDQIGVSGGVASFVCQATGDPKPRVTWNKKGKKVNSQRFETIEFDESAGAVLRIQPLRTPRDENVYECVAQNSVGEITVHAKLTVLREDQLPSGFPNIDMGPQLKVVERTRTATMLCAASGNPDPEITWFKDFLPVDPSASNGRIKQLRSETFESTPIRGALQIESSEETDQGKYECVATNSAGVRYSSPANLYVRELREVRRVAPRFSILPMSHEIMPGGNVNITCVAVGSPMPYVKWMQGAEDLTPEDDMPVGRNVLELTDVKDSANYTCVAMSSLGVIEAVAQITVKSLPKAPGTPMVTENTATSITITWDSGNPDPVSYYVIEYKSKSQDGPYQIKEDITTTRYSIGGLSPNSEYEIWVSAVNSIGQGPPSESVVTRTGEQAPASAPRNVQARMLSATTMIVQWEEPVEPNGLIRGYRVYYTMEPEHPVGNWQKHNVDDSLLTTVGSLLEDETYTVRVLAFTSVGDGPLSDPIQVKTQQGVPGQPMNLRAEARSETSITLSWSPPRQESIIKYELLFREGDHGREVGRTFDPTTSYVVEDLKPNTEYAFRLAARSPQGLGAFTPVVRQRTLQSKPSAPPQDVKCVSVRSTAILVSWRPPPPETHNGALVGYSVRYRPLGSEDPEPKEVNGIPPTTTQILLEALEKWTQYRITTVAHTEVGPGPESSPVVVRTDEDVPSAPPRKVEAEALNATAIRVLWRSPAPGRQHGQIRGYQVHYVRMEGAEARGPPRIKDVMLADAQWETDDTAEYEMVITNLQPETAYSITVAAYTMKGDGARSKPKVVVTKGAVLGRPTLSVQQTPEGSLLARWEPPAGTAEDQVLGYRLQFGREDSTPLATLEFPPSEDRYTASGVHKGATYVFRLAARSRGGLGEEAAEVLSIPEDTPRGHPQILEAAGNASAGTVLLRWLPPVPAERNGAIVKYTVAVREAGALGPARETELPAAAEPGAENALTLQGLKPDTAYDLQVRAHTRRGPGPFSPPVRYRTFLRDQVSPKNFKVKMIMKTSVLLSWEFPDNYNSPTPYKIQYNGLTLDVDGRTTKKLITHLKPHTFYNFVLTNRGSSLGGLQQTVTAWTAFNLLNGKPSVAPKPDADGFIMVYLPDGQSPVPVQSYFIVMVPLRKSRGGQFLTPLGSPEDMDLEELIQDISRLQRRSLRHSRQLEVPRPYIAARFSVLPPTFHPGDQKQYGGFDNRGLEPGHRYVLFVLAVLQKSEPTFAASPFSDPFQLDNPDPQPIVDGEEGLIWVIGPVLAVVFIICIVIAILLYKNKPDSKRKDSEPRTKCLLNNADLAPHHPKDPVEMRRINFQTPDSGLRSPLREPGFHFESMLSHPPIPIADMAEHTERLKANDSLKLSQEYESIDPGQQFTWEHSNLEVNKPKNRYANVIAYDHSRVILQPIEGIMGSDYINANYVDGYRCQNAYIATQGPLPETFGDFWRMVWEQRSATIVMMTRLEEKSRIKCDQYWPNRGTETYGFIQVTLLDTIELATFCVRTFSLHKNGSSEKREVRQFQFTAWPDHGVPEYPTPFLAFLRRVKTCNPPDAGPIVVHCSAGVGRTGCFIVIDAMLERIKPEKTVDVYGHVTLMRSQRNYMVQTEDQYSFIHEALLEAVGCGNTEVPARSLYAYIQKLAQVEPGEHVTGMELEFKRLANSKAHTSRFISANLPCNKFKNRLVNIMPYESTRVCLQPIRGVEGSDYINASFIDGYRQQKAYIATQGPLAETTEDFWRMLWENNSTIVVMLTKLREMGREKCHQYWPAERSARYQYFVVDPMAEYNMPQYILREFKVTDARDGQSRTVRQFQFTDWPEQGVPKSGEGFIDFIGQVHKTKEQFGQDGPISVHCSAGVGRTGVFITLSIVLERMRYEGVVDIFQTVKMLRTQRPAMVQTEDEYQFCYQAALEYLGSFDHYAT

Kd: 9.3 nM
B1: TrkC-Fc (soluble purified TrkC ectodomain fused to human immunoglobulin Fc region) (Fc fusion, rat, UniProt Q03351 32-429, looked up)
chain: CPANCVCSKTEINCRRPDDGNLFPLLEGQDSGNSNGNASINITDISRNITSIHIENWRGLHTLNAVDMELYTGLQKLTIKNSGLRNIQPRAFAKNPHLRYINLSSNRLTTLSWQLFQTLSLRELRLEQNFFNCSCDIRWMQLWQEQGEARLDSQSLYCISADGSQLPLFRMNISQCDLPEISVSHVNLTVREGDNAVITCNGSGSPLPDVDWIVTGLQSINTHQTNLNWTNVHAINLTLVNVTSEDNGFTLTCIAENVVGMSNASVALTVYYPPRVVSLVEPEVRLEHCIEFVVRGNPTPTLHWLYNGQPLRESKIIHMDYYQEGEVSEGCLLFNKPTHYNNGNYTLIAKNALGTANQTINGHFLKEPFPESTDFFDFESDASPTPPITVTHKPEEDT
